Test results: the RNAGym collection of RNA variant scans (doi:10.1073/pnas.2313332121)

B1: TPR t1 (parent)
chain: GACCAAUCUGCCCUCAGAGCUCGAGAACAUCUUCGGAUGCAGAGGAGGCAGGCUUCGGUGGCGCGAUAGCGCCAACGUCCUCAACCUCCAAUGCAUCCCACCACAUGAUGAUGCCUGAAGAGCCUUGGUUUUUUG

Variants of: B1
Assay: polymerase ribozyme fitness, log enrichment relative to wild type (log ratio); higher = more active; in vitro selection for triplet polymerase activity
How it was run: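 Both subunits of a heterodimeric triplet polymerase ribozyme were given their own mutant library, built by PCR and transcribed. Each library was annealed with a biotinylated primer, the partner subunit and triplets, incubated frozen at −7 °C, and its extended constructs gel-excised, captured on streptavidin beads and amplified by RT-PCR, all in one round done in triplicate. Fitness is the logarithm of genotype enrichment relative to wild-type enrichment, with replicates averaged by inverse-variance weighting. That logarithm is base 2, and Illumina-sequenced genotypes needed ≥10 input reads and ≥1 read per output.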

Variant | polymerase ribozyme fitness (log ratio)
C4G C8U C72A U78A U87A | -2.03
C4U G52U G128C U131A | -3.4
C4A G52A C53A A90U U130C | -3.34
C4A G39C A75G C114G G120A | -5.14
C4G C56U | -1.92
C4U C12G C49G A95U A111G | -1.16
C4A A18G G71U C89A A100C G113A C124U | -4.08
C4U G52U C73A | -0.845
C4A C11G C13A C53U G69C U81G G110A | -6.32
C4U C70A A121C U131A | -0.259
C4G A66G C72U C80U C123A | -2.88
A5C A27U C73U C123U G128A | -3.34
C4A C72U G110A U129G | -5.59
C4G A46U G47A | -4.4
C4U A37U G48U C73G C98A U106G U112A | -5.16
C4U G69U C72G C124G | 0.464
C4A U78A G93C C115A | -2.87
C4U A26G C28U C40A C64A C123U | -6.51
C4A A24G | -4.5
C4G C115U | -2.19
C4A U9A C72A U78C | -0.731

Variant | polymerase ribozyme fitness (log ratio)
C4A A37U G93A | -2.66
C4U G36A C70A G71A A90G U112G | -6.28
C4U G71A | -0.833
C4U A27U | -2.79
A5C A16C G44C | -4.17
C4A G128C | -1.53
C4U U32A G47A U112G | -5.29
A5C A43C G45A C56A A91G G113A | -4.37
C4G U59A G71U C82A | -5.53
C4A C13U A24C C40G A111G | -5.59
C4U G17A | -2.72
C4U G45U C124A | 0.121
C4A A43G G47C C64U C86G U125G G127C | -2.57
C4A C102U C123A | -3.39
C4G C12A G45A G71U A100U U106A | -2.68
C4U G10U C70G | -4.35
C4U A68G | -3.11
C4A C20A | -4.2
C4U U96A U106A G122A | -0.892
C4A A41G U106A | -1.87
C4U G113A | -1.15

Variant | polymerase ribozyme fitness (log ratio)
C4G A121C | 0.946
C4A U14A | -5.35
C4U C22G A43U G48U C49U C97U | -4.83
C4G G36U A90C C124U | -3.18
C4A A50G C70U A84C C115A | -2.59
C4U C15U G57U A100C | -4.18
C4U C70U G77C | -1.36
C4A C8A U9C C82U C114U | -2.35
C4G C102A | -3.83
C4U C12A G44A U116A | -6.42
C4U U7G A27U A119G | -1.81
C4A A84C C115U G135U | -3.92
C4U C88A | -0.437
C4U C11A C76U C82G G110U | -5.02
C4A C8U | -0.352
C4A U7G G35U G63C G65U C98U G117U | -6
C4U C15G C28U A121G | -2.9
C4A C8G G36U G45U U78A C114U | -5.41
C4G G10U G63U G69U G120A | 0.883
C4U C15U C72G C99U G120A | -4.79
C4G U59C G65A C85U G110C | -5.92

Variant | polymerase ribozyme fitness (log ratio)
C4U A27G C62A | -4.35
C4U C72G | -0.855
C4U C72U | -0.857
C4U U87C | -0.694
C4U G71A G77A | -2.96
A5C | -0.52
C4G G63U C123A | -1.09
C4A C12A C70U C86G G120U G128C | -2.75
C4G C11G C49A G51C G58A C73U C79U | -4.64
C4G G17U C53U C56A | -3.68
C4U U9G C11A C72U A74U U106A | -0.724
C4A G10U A84G | -2.55
C4G C8U A18U A43U U81A | -2.85
C4U U7A G69A | -2.49
C4G A5U C76U | -2.75
C4U G58A C124U | 0.263
C4U C12A C53A C56U C89G A121G | -1.89
C4U A50C A74U C79G G117A | -4.91
C4U C115A | -1.18
C4A A43G U130C | -2.6
C4U G10A U21A G44A A83U | -1.59
